Source: the supplement of paper PMC7877785
± gives the uncertainty stated by the source.

Test: self-splicing fitness, log relative to wild type (ln ratio); higher = more splicing; Tetrahymena group I intron in knt gene, E. coli kanamycin selection, DiMSum; sequences stand for … in CUCUCU…GGAGGGAAAAGUUAUCAGGCAUGCACCUGGUAGCUAGUCUUUAAACCAAUAGAUUGCAUCGGUUUAAAAGGCAAGACCGUCAAAUUGCGGGAAAGGGGUCAACAGCCGUUCAGUACCAAGUCUCAGGGGAAACUUUGAGAUGGCCUUGCAAAGGGUAUGGUAAUAAGCUGACGGACAUGGUCCUAACCACGCAGCCAAGUCCUAAGUCAACAGAUCUUCUGUUGAUAUGGAUGCAGUUCACAGACUAAAUGUCGGUCGGGGAAGAUGUAUUCUUCUCAUAAGAUAUAGUCGGACCUCUCCUUAAUGGGAGCUAGCGGAUGAAGUGAUGCAACACUGGAGCCGCUGGGAACUAAUUUGUAUGCGAAAGUAUAUUGAUUAGUUUUGGAGUACUCGUGGUCG
Method in brief: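 The eight P1ex-region nucleotides of an intron in the knt kanamycin-resistance gene on pET-22b(+) were all randomised and the library put into E. coli BL21(DE3). Six replicate transformations were grown overnight at 37°C or 30°C on LB agar with or without 25 μg/mL kanamycin, together with 100 μg/mL carbenicillin, 50 μM IPTG and 0.2% rhamnose. Colonies were pooled and amplicon-sequenced on an Illumina HiSeq 2500. Fitness from DiMSum is the error-weighted combination of wild-type-normalised replicate fold changes, kanamycin over none.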

Sequence	self-splicing fitness (ln) (37 °C)	self-splicing fitness (ln) (30 °C)
UAAGAGCAAUAUUACGAUUC	-0.537 ± 0.43	–
UAAGAGCAAUAUUACGCGCG	-1.35 ± 0.3	-1.38 ± 0.24
UAAGAGCAAUAUUACGCUGA	-1.15 ± 0.29	–
UAAGAGCAAUAUUACGCUGC	-1.15 ± 0.37	–
UAAGAGCAAUAUUACGCUGU	-2.22 ± 0.34	-3.35 ± 0.45
UAAGAGCAAUAUUACGGAGC	–	-3.44 ± 0.4
UAAGAGCAAUAUUACGGAGU	-2.21 ± 0.25	-3.26 ± 0.23
UAAGAGCAAUAUUACGGAUA	-1.54 ± 0.4	-2.84 ± 0.44
UAAGAGCAAUAUUACGUAAA	-1.89 ± 0.33	-3.2 ± 0.37
UAAGAGCAAUAUUACGUCCA	-2.4 ± 0.41	-3.08 ± 0.34
UAAGAGCAAUAUUACGUCUU	-1.49 ± 0.18	-3.28 ± 0.2
UAAGAGCAAUAUUACGUGAC	-2.8 ± 0.34	-3.63 ± 0.27
UAAGAGCAAUAUUACGUGCU	-2.09 ± 0.27	-4.59 ± 0.31
UAAGAGCAAUAUUACGUGGC	-2.2 ± 0.2	-4.44 ± 0.27
UAAGAGCAAUAUUACGUGUA	-2.21 ± 0.27	-2.36 ± 0.36
UAAGAGCAAUAUUACGUUAG	-3.1 ± 0.27	-3.43 ± 0.24
UAAGAGCAAUAUUACGUUUA	-1.36 ± 0.13	-2.31 ± 0.12
UAAUAGCAAUAUUACGAAAA	-1.59 ± 0.15	-2.83 ± 0.26
UAAUAGCAAUAUUACGAACA	-0.685 ± 0.13	-1.07 ± 0.14
UAAUAGCAAUAUUACGAAGA	-2.76 ± 0.31	–
UAAUAGCAAUAUUACGAAGG	-1.6 ± 0.17	-3.08 ± 0.17
UAAUAGCAAUAUUACGAAUG	-0.382 ± 0.11	-1.37 ± 0.11
UAAUAGCAAUAUUACGACUA	-0.0379 ± 0.13	-0.456 ± 0.11
UAAUAGCAAUAUUACGAGAA	-1.22 ± 0.26	–
UAAUAGCAAUAUUACGAUCC	–	-3.33 ± 0.44

Sequence	self-splicing fitness (ln) (37 °C)	self-splicing fitness (ln) (30 °C)
UAAUAGCAAUAUUACGAUCU	-0.601 ± 0.12	-1.4 ± 0.098
UAAUAGCAAUAUUACGAUUG	0.0133 ± 0.076	0.193 ± 0.068
UAAUAGCAAUAUUACGCAAG	-1.04 ± 0.25	-1.92 ± 0.29
UAAUAGCAAUAUUACGCCCG	0.42 ± 0.42	–
UAAUAGCAAUAUUACGCCUA	0.0899 ± 0.19	-0.175 ± 0.16
UAAUAGCAAUAUUACGCGAA	-0.873 ± 0.14	-3.51 ± 0.24
UAAUAGCAAUAUUACGCGCC	-1.39 ± 0.41	-2.47 ± 0.34
UAAUAGCAAUAUUACGCUCC	-0.899 ± 0.32	-1.74 ± 0.39
UAAUAGCAAUAUUACGGAGU	-2.82 ± 0.22	-4.07 ± 0.27
UAAUAGCAAUAUUACGGCCG	0.0754 ± 0.16	-0.212 ± 0.12
UAAUAGCAAUAUUACGGCUA	0.527 ± 0.094	0.00533 ± 0.088
UAAUAGCAAUAUUACGGCUG	-0.0273 ± 0.16	-0.00933 ± 0.11
UAAUAGCAAUAUUACGGGAG	-3.3 ± 0.22	-2.84 ± 0.17
UAAUAGCAAUAUUACGGGUU	-2.65 ± 0.21	-3.33 ± 0.24
UAAUAGCAAUAUUACGGUAG	-2.05 ± 0.14	-3.43 ± 0.14
UAAUAGCAAUAUUACGGUUG	-0.0839 ± 0.091	-0.0942 ± 0.085
UAAUAGCAAUAUUACGUACU	-0.805 ± 0.088	-1.91 ± 0.094
UAAUAGCAAUAUUACGUUCG	0.133 ± 0.12	-0.563 ± 0.11
UACAAGCAAUAUUACGAAAC	-1.61 ± 0.32	–
UACAAGCAAUAUUACGAAUU	-2.99 ± 0.26	-2.48 ± 0.16
UACAAGCAAUAUUACGAGGG	-1.47 ± 0.14	-2.8 ± 0.14
UACAAGCAAUAUUACGAUAC	-2.34 ± 0.25	-3.7 ± 0.44
UACAAGCAAUAUUACGCAUA	-0.871 ± 0.11	-2.07 ± 0.11
UACAAGCAAUAUUACGCCAC	–	-2.95 ± 0.27
UACAAGCAAUAUUACGCGGA	-1.21 ± 0.098	-1.85 ± 0.092

Sequence	self-splicing fitness (ln) (37 °C)	self-splicing fitness (ln) (30 °C)
UACAAGCAAUAUUACGCGGC	-2.91 ± 0.31	-3.59 ± 0.24
UACAAGCAAUAUUACGCUAC	-2.26 ± 0.21	-3.76 ± 0.29
UACAAGCAAUAUUACGCUCU	-0.0585 ± 0.11	-1.36 ± 0.087
UACAAGCAAUAUUACGGACA	0.0805 ± 0.083	-0.516 ± 0.087
UACAAGCAAUAUUACGGACG	0.44 ± 0.097	-0.321 ± 0.075
UACAAGCAAUAUUACGGACU	-0.00357 ± 0.085	-1.22 ± 0.079
UACAAGCAAUAUUACGGGUG	-0.55 ± 0.054	-0.523 ± 0.04
UACAAGCAAUAUUACGGUUA	-0.221 ± 0.063	-0.0426 ± 0.052
UACAAGCAAUAUUACGUCGG	-0.921 ± 0.088	-2.46 ± 0.082
UACAAGCAAUAUUACGUGUU	-1.58 ± 0.11	-2.85 ± 0.081
UACAAGCAAUAUUACGUUGC	-2.94 ± 0.27	-4.71 ± 0.42
UACAAGCAAUAUUACGUUUC	-1.72 ± 0.2	-2.55 ± 0.2
UACCAGCAAUAUUACGACUG	-3.05 ± 0.25	-4.48 ± 0.39
UACCAGCAAUAUUACGAGAG	-1.12 ± 0.081	-2.64 ± 0.12
UACCAGCAAUAUUACGAGAU	-3.25 ± 0.13	-3.69 ± 0.21
UACCAGCAAUAUUACGAGUA	-1.69 ± 0.08	-1.25 ± 0.085
UACCAGCAAUAUUACGAUCA	-0.323 ± 0.09	-0.119 ± 0.07
UACCAGCAAUAUUACGAUGA	-0.119 ± 0.065	-0.0346 ± 0.056
UACCAGCAAUAUUACGAUGG	-1.25 ± 0.091	-3.01 ± 0.11
UACCAGCAAUAUUACGCAGA	-0.165 ± 0.11	-1.24 ± 0.11
UACCAGCAAUAUUACGCAGC	-1.87 ± 0.23	-2.72 ± 0.18
UACCAGCAAUAUUACGCCGU	-1.6 ± 0.23	-1.4 ± 0.14
UACCAGCAAUAUUACGCUUG	-0.79 ± 0.095	-1.01 ± 0.073
UACCAGCAAUAUUACGGACC	-0.872 ± 0.086	-0.962 ± 0.071
UACCAGCAAUAUUACGGAUG	0.494 ± 0.085	-0.756 ± 0.055

Sequence	self-splicing fitness (ln) (37 °C)	self-splicing fitness (ln) (30 °C)
UACCAGCAAUAUUACGGCCA	-0.0799 ± 0.097	-0.369 ± 0.073
UACCAGCAAUAUUACGGGAC	-2.31 ± 0.2	-3.46 ± 0.19
UACCAGCAAUAUUACGGGUU	-1.46 ± 0.1	-2.21 ± 0.085
UACCAGCAAUAUUACGUAAC	-2.18 ± 0.2	-2.64 ± 0.13
UACCAGCAAUAUUACGUAGG	-2.74 ± 0.24	-3.19 ± 0.2
UACCAGCAAUAUUACGUCCC	-1.38 ± 0.38	-1.47 ± 0.35
UACCAGCAAUAUUACGUCUA	0.41 ± 0.086	0.0647 ± 0.067
UACCAGCAAUAUUACGUCUC	-2.26 ± 0.18	-2.4 ± 0.14
UACCAGCAAUAUUACGUUCA	0.27 ± 0.08	-0.401 ± 0.06
UACCAGCAAUAUUACGUUUG	-2.43 ± 0.13	-3.36 ± 0.12
UACCAGCAAUAUUACGUUUU	-2.37 ± 0.15	-1.51 ± 0.094
UACGAGCAAUAUUACGAAAC	–	-2.05 ± 0.48
UACGAGCAAUAUUACGAACG	-2.05 ± 0.16	-2.96 ± 0.26
UACGAGCAAUAUUACGACUA	-0.167 ± 0.1	-0.65 ± 0.085
UACGAGCAAUAUUACGACUG	-1.35 ± 0.17	-0.684 ± 0.24
UACGAGCAAUAUUACGAUAA	-2.05 ± 0.16	-2.9 ± 0.16
UACGAGCAAUAUUACGAUUG	-0.584 ± 0.2	-3.62 ± 0.25
UACGAGCAAUAUUACGCAGC	-3.83 ± 0.46	-3.16 ± 0.34
UACGAGCAAUAUUACGCGAA	-2.72 ± 0.26	-2.89 ± 0.32
UACGAGCAAUAUUACGCUCA	-0.952 ± 0.2	-1.46 ± 0.15
UACGAGCAAUAUUACGGAAG	-2.26 ± 0.37	-3.5 ± 0.24
UACGAGCAAUAUUACGGACU	–	-2.36 ± 0.23
UACGAGCAAUAUUACGGGAA	-2.85 ± 0.4	-1.91 ± 0.2
UACGAGCAAUAUUACGGGGG	-3.14 ± 0.34	-4.08 ± 0.29
